Assays:
[1] = molecular target: recombinant Api m 2 (rApi m 2), venom hyaluronidase (honeybee, UniProt Q08169 34-382); assay: ELISA, immobilized rApi m 2, purified nanobody
Description: (A) Binding to immobilized Api m 1 was detected using anti-V5 antibody. […] (B) Binding to immobilized rApi m 2 was detected using mouse anti-penta-His and AP-conjugated rabbit anti-mouse IgG antibody.
The immunoreactivity of expressed nanobodies was assessed by ELISA. Briefly, micro well plates were coated with 10 μg/ml nApi m 1 or rApi m 2 diluted in PBS at 4° C. o.n. After blocking for 1 h with PBS containing 4% skimmed milk powder, purified nanobodies were incubated in the wells for 2-3 h at rt. shaking. After washing, nanobodies were detected with rabbit anti-V5 antibody (antibodies-online) and AP-conjugated goat anti-rabbit IgG antibody (Sigma) or with mouse anti-penta-His and AP-conjugated rabbit anti-mouse IgG antibody (Sigma).

[2] = molecular target: T1, native Api m 1 (nApi m 1), phospholipase A2 from honeybee venom (Apis mellifera, UniProt P00630 34-167); assay: monoclonal phage ELISA (phage-displayed nanobody) on immobilized Api m 1 or AM1-4 IgG/Api m 1 complexes; positive clones
T1 construct: also called PLA2; chain A
Description: Enrichment of the nanobody phage library was assessed in ELISA by measuring the immunoreactivity of polyclonal phages (A). Binding of phages to immobilized Api m 1 or AM1-4 IgG/Api m 1 complexes was detected using a biotinylated anti-M13 antibody. Data are mean±s.d. of duplicates. Immunoreactivity of monoclonal phages was analyzed in ELISA as above (B). Data are single measurements.
After two rounds of selection the polyclonal phages were assessed for binding to Api m 1 by ELISA. Briefly, micro well plates were coated with 2 μg/ml Api m 1 or 10 μg/ml AM1-4IgG diluted in PBS at 4° C. o.n. After blocking for 30 min with TBS containing 4% skimmed milk powder, the wells were incubated with 2 μg/ml Api m 1 for 1 h at room temperature. After formation of AM1-4 IgG/Api m 1 complexes, polyclonal phages (1×10¹² phages/ml) were incubated in the wells for 2 h at room temperature. After washing, bound phages were detected with biotinylated anti-M13 antibody (Invitrogen) and AP-conjugated ExtrAvidin. For assessment of monoclonal phages, E. coli ER2738 infected with polyclonal phages were plated and individual colonies were picked and expanded for monoclonal phage propagation. Monoclonal phages were assessed by ELISA as described above.

[3] = molecular target: T1, native Api m 1 (nApi m 1), …
[4] = molecular target: T1, native Api m 1 (nApi m 1), …; assay: BLI, compared with AM1-1 IgG1
[5] = molecular target: T1, native Api m 1 (nApi m 1), …; assay: cell-based or functional assay

T1 sequence (P00630 34-167): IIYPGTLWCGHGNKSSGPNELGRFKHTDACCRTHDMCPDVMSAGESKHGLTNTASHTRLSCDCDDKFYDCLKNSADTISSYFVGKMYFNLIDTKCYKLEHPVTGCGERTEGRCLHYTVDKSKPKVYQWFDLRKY
recombinant Api m 2 (rApi m 2), venom hyaluronidase, sequence (Q08169 34-382): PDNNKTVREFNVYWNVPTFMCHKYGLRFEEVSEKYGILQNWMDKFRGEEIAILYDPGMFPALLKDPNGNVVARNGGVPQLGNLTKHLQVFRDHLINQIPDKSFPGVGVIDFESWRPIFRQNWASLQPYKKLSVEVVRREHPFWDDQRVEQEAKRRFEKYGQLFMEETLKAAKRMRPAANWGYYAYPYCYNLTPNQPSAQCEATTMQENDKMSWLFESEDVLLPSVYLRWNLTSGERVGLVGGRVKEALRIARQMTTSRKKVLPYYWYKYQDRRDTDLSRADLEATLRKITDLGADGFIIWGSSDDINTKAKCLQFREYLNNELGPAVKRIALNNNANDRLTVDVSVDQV

| Binder | Kd [3] | inhibition of basophil activation (CD63 positive), Patient 1 [5] | inhibition of basophil activation (CD63 positive), Patient 2 [5] | further results |
| --- | --- | --- | --- | --- |
| nanobody AM2-O2 (VHH, not shown: small tags and cut ends) VHH: EVQLQESGGGLVQAGGSLRLSCAASGDTICISAMGWYRQAPGKERELVAVITSADSTNYADSVKGRFTISRAGAKNTLYLQMNSLKPEDTAVYYCNAHTPKYSDFEVTCYEYDYWGQGTLVSVS |  |  |  | binding result [1]: binds |
| nanobody AM2-C2 (VHH, not shown: small tags and cut ends) VHH: EVQLQESGGGLVQPGGSLRLSCAASGTTINIGAARWYRQAPGKQREVVAGISFGGATNYIDSVKGRFTISRGDALNTWYLQMNNLKPEDTAVYYCNARGEWGQGTQVAVS |  |  |  | binding result [1]: binds |
| nanobody AM1-22 (VHH, not shown: small tags and cut ends, also called B4) VHH: QVQLVESGGGLVQAGGSLRLSCAASGSIFNWAWYRQFPGKQREWVATITSGGNTNLADSVKGRFTISLDNAKNTMYLQMNSLKPEDTAVYYCNSARFRNRDAIWGQGTQVTVS |  |  |  | binding result [2]: binds |
| AM1-22 IgG1 (nanobody-based human IgG1) (Fc fusion) QVQLVESGGGLVQAGGSLRLSCAASGSIFNWAWYRQFPGKQREWVATITSGGNTNLADSVKGRFTISLDNAKNTMYLQMNSLKPEDTAVYYCNSARFRNRDAIWGQGTQVTVS | < 0.001 nM |  |  | fold higher affinity than AM1-1 IgG1 [4]: ~100 fold |
| AM1-1 IgG1 (monospecific nanobody-based human IgG1) (Fc fusion) QVQLVETGGGLVQAGGSLRLSCATSGTIFSRATMAWYRQTPGKQREWVTTITTSGNTNYADSVKGRFTISRDNAESTLYLQMNSLKPEDTAVYYCNAQFLSSRTNYWGKGTQVTVS | 1.94 nM | 16% | 7% |  |
| mix of the two monospecific nanobody-based human IgG1 (AM1-1 IgG1 and AM1-4 IgG1) (other) chain 1: QVQLVETGGGLVQAGGSLRLSCATSGTIFSRATMAWYRQTPGKQREWVTTITTSGNTNYADSVKGRFTISRDNAESTLYLQMNSLKPEDTAVYYCNAQFLSSRTNYWGKGTQVTVS chain 2: QVQLVESGGGLVQAGGSLRLSCAASGRTFSRYAMGWFRQAPGKEREFVSAISGSGGFTDYADSVKGRFTISRDNAKSTVYLRMSSLKPEDTAVYYCAAEGSRGSSTRLDARGTYDYWGQGTQVTVS |  | 69% | 38% |  |
| AM1-4 IgG1 (monospecific nanobody-based human IgG1) (Fc fusion) QVQLVESGGGLVQAGGSLRLSCAASGRTFSRYAMGWFRQAPGKEREFVSAISGSGGFTDYADSVKGRFTISRDNAKSTVYLRMSSLKPEDTAVYYCAAEGSRGSSTRLDARGTYDYWGQGTQVTVS | 0.3 nM | 44% | 23% |  |
| nanobody AM1-21 (VHH, not shown: small tags and cut ends, also called A7) VHH: QVQLVESGGGLVQAGGSLRLSCAASGFTLDYYAIGWFRQAPGKEREGVSCITSYDDSTYYTDSVKGRFTISRDNAKNTVYLQMNSLKPEDTAVYYCAAVGTWYLVNWWAPSEYDYWGQGTQVTVS |  |  |  | binding result [2]: binds |
| AM1-21 IgG1 (nanobody-based human IgG1) (Fc fusion) QVQLVESGGGLVQAGGSLRLSCAASGFTLDYYAIGWFRQAPGKEREGVSCITSYDDSTYYTDSVKGRFTISRDNAKNTVYLQMNSLKPEDTAVYYCAAVGTWYLVNWWAPSEYDYWGQGTQVTVS | 0.0153 nM |  |  | fold higher affinity than AM1-1 IgG1 [4]: ~100 fold |

Source: US20250206812A1 (AARHUS UNIVERSITET, published 2025)
